# In US20260209317A1 (US Dept. of Health and Human Services, published 2026):
# Read-outs that look alike come from different tables or passages of the source.
# Key:
# [1] = target: SARS-CoV-2 omicron-BA.1 RBD protein (SARS-CoV-2, UniProt P0DTC2 319-541)
# [2] = target: T1, SARS-CoV-2 Omicron XBB spike protein (on pseudotyped lentivirus) (SARS-CoV-2, UniProt P0DTC2 14-1273); experiment: cell-based or functional assay
# [3] = target: T2, SARS-CoV-2 B.1.351 spike protein (on pseudotyped lentivirus) (SARS-CoV-2); experiment: cell-based or functional assay
# [4] = target: T3, SARS-CoV-2 B.1.1.7 spike protein (on pseudotyped lentivirus) (SARS-CoV-2); experiment: cell-based or functional assay
# [5] = target: T4, SARS-CoV-2 Omicron BA.4.6 spike protein (on pseudotyped lentivirus) (SARS-CoV-2); experiment: cell-based or functional assay
# [6] = target: T5, SARS-CoV-2 Omicron BQ.1.1 spike protein (on pseudotyped lentivirus) (SARS-CoV-2, UniProt P0DTC2 14-1273); experiment: cell-based or functional assay
# [7] = target: T6, SARS-CoV-2 B.1.617.2 spike protein (on pseudotyped lentivirus) (SARS-CoV-2); experiment: cell-based or functional assay
# [8] = target: T7, SARS-CoV-2 Omicron BA.2 spike protein (on pseudotyped lentivirus) (SARS-CoV-2); experiment: cell-based or functional assay
# [9] = target: T8, SARS-CoV-2 D614G spike protein (on pseudotyped lentivirus) (SARS-CoV-2, UniProt P0DTC2 14-1273); experiment: cell-based or functional assay
# [10] = target: T9, SARS-CoV-2 P.1 spike protein (on pseudotyped lentivirus) (SARS-CoV-2); experiment: cell-based or functional assay
# [11] = target: T10, SARS-CoV-2 Omicron BA.2.75.2 spike protein (on pseudotyped lentivirus) (SARS-CoV-2); experiment: cell-based or functional assay
# [12] = target: T11, SARS-CoV-2 Omicron BA.4/BA.5 spike protein (on pseudotyped lentivirus) (SARS-CoV-2, UniProt P0DTC2 14-1273); experiment: cell-based or functional assay
# [13] = target: T12, SARS-CoV-2 Omicron BA.2.75 spike protein (on pseudotyped lentivirus) (SARS-CoV-2, UniProt P0DTC2 14-1273); experiment: cell-based or functional assay
# [14] = target: T13, SARS-CoV-2 Omicron BJ.1 spike protein (on pseudotyped lentivirus) (SARS-CoV-2, UniProt P0DTC2 14-1273); experiment: cell-based or functional assay
# [15] = target: T1, SARS-CoV-2 Omicron XBB spike protein …; experiment: cell-based or functional assay; remark: listed apart in the source
# [16] = target: T2, SARS-CoV-2 B.1.351 spike protein (on …); experiment: cell-based or functional assay; remark: listed apart in the source
# [17] = target: T3, SARS-CoV-2 B.1.1.7 spike protein (on …); experiment: cell-based or functional assay; remark: listed apart in the source
# [18] = target: T4, SARS-CoV-2 Omicron BA.4.6 spike protein …; experiment: cell-based or functional assay; remark: listed apart in the source
# [19] = target: T5, SARS-CoV-2 Omicron BQ.1.1 spike protein …; experiment: cell-based or functional assay; remark: listed apart in the source
# [20] = target: T6, SARS-CoV-2 B.1.617.2 spike protein (on …); experiment: cell-based or functional assay; remark: listed apart in the source
# [21] = target: T7, SARS-CoV-2 Omicron BA.2 spike protein …; experiment: cell-based or functional assay; remark: listed apart in the source
# [22] = target: T8, SARS-CoV-2 D614G spike protein (on …); experiment: cell-based or functional assay; remark: listed apart in the source
# [23] = target: T9, SARS-CoV-2 P.1 spike protein (on …); experiment: cell-based or functional assay; remark: listed apart in the source
# [24] = target: T10, SARS-CoV-2 Omicron BA.2.75.2 spike …; experiment: cell-based or functional assay; remark: listed apart in the source
# [25] = target: T11, SARS-CoV-2 Omicron BA.4/BA.5 spike …; experiment: cell-based or functional assay; remark: listed apart in the source
# [26] = target: T12, SARS-CoV-2 Omicron BA.2.75 spike …; experiment: cell-based or functional assay; remark: listed apart in the source
# [27] = target: T13, SARS-CoV-2 Omicron BJ.1 spike protein …; experiment: cell-based or functional assay; remark: listed apart in the source
binder,measurement,setting,value
"B2-269.1 (antibody, V domains shown) VH: EVQLVESGGGLVQPGGSLRLSCAASGITVSSNYMSWVRQPPGKGLDWVSLIFSGGSTYYADSVKGRFTISRDNSKNTLYLQMNSLRAEDTAVYYCARVGVAVAGTDYDIWGQGTMVTVSS VL: DIQMTQSPSSLSASVGDRVTITCQASQDINKYLNWYQQKPGKAPKLLIYDASNLETGVPSRFSGSGSGTDFTFTISSLQPEDIATYYCLHYENLPLSFGGGTKVEIK",EC50 (read off the curve),[1],~0.04 mg/L
same,neutralization IC50,[2],< 1.1 mg/L
same,neutralization IC50,[3],< 0.1 mg/L
same,neutralization IC50,[4],< 0.1 mg/L
same,neutralization IC50,[5],< 0.1 mg/L
same,neutralization IC50,[6],< 0.1 mg/L
same,neutralization IC50,[7],< 0.1 mg/L
same,neutralization IC50,[8],< 0.1 mg/L
same,neutralization IC50,[9],< 0.1 mg/L
same,neutralization IC50,[10],< 0.1 mg/L
same,neutralization IC50,[11],< 1.1 mg/L
same,neutralization IC50,[12],< 0.1 mg/L
same,neutralization IC50,[13],< 1.1 mg/L
same,neutralization IC50,[14],< 0.1 mg/L
same,neutralization IC50,[15],0.179 mg/L
same,neutralization IC80,[15],3.56 mg/L
same,neutralization IC50,[16],0.007 mg/L
same,neutralization IC80,[16],0.022 mg/L
same,neutralization IC50,[17],0.02 mg/L
same,neutralization IC80,[17],0.034 mg/L
same,neutralization IC50,[18],0.011 mg/L
same,neutralization IC80,[18],0.031 mg/L
same,neutralization IC50,[19],0.126 mg/L
same,neutralization IC80,[19],0.576 mg/L
same,neutralization IC50,[20],0.028 mg/L
same,neutralization IC80,[20],0.054 mg/L
same,neutralization IC50,[21],0.01 mg/L
same,neutralization IC80,[21],0.032 mg/L
same,neutralization IC50,[22],0.017 mg/L
same,neutralization IC80,[22],0.039 mg/L
same,neutralization IC50,[23],0.01 mg/L
same,neutralization IC80,[23],0.025 mg/L
same,neutralization IC50,[24],0.709 mg/L
same,neutralization IC80,[24],2.5 mg/L
same,neutralization IC50,[25],0.013 mg/L
same,neutralization IC80,[25],0.036 mg/L
same,neutralization IC50,[26],1.14 mg/L
same,neutralization IC80,[26],3.54 mg/L
same,neutralization IC50,[27],0.001 mg/L
same,neutralization IC80,[27],0.008 mg/L
